Laboratory results: patent US20040009569A1, “Kinase crystal structures and materials and methods for kinase activation” (priority 2001, published 2004)
“Also recorded” adds a separate entry of the source. Like-named read-outs stand apart in the source and are kept apart here. Square brackets hold non-standard residues; d marks the D form. Peptide text beside a SMILES is read from it. pS = N[C@@H](COP(=O)(O)O)C(=O)O

Tests used:
[1] = target: ΔPH-PKBβ-ΔC (human PKBβ residues 146 to 460, not phosphorylated on Thr-309) (human) (UniProt P31751); test: isothermal titration calorimetry
Chain of ΔPH-PKBβ-ΔC (human PKBβ residues 146 to 460, not phosphorylated on Thr-309) (human) (P31751 146-460, stated change not applied): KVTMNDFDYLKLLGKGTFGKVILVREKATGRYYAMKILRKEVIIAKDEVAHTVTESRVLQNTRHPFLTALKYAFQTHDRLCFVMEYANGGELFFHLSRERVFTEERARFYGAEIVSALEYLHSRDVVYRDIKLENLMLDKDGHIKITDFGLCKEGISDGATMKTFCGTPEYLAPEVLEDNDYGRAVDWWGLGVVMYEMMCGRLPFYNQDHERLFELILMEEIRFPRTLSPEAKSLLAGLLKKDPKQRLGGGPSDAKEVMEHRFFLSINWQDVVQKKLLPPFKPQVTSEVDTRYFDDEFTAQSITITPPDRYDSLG

[2] = target: ΔPH-PKB (human PKBβ residues 146-481) phosphorylated on Thr 309 (human) (UniProt P31751); test: cell-based or functional assay
[3] = target: His tagged pΔPH-PKB-ΔC hydrophobic groove mutant V194A-V198A (human) (UniProt P31751); test: cell-based or functional assay
Chain of His tagged pΔPH-PKB-ΔC hydrophobic groove mutant V194A-V198A (human) (P31751 146-460 V194A/V198A limits assumed): as the sequence (P31751 146-460, stated change not applied) above, with V49A, V53A counted along it

[4] = target: pΔPH-PKBβ-ΔC (human PKBβ residues 146 to 460, phosphorylated in vitro on Thr-309) (human) (UniProt P31751); test: cell-based or functional assay
Chain of pΔPH-PKBβ-ΔC (human PKBβ residues 146 to 460, phosphorylated in vitro on Thr-309) (human) (P31751 146-460, stated change not applied): as the sequence (P31751 146-460, stated change not applied) above

[5] = target: His tagged pΔPH-PKB-ΔC, wild type, transiently expressed in HEK cells (human) (UniProt P31751); test: cell-based or functional assay
Chain of His tagged pΔPH-PKB-ΔC, wild type, transiently expressed in HEK cells (human) (P31751 146-460, stated change not applied): as above

[6] = target: T1, pΔPH-PKB-ΔC (PKBβ residues 146 to 460, phosphorylated in vitro on Thr-309) (Homo sapiens, UniProt P31751); test: Protein kinase B assay with Crosstide as substrate, peptide stimulation of pΔPH-PKB-ΔC; type: biochemical; conditions: for fold lower affinity than PIFtide, from estimated EC50: PKB not phosphorylated on Ser 474; for stimulation of pΔPH-PKB-ΔC activity (in words): PIFtide peptides at 210-250 μM, PKB HM-peptide up to 1.2 mM
T1 construct: pΔPH-PKB-ΔC (residues 146 to 460, phosphorylated in vitro on Thr-309); 6xHis (N, cleaved yes); made in house; host or cells: Sf9 insect cells / baculovirus (pFastBacHTa)
T1 sequence (P31751 146-460, stated change not applied): as above
Method: To test the model that Ser 474 phosphorylation promotes an interaction between the hydrophobic motif and the induced hydrophobic groove of the N-terminal lobe, thereby causing an allosteric activation of the kinase, the ability of peptides modelled on the hydrophobic motif of PKB to activate the enzyme via an intermolecular association with the N-terminal lobe was assessed.
(§1) PKB was assayed essentially as described by Andjelkovic et al. (1999) with 30 μM Crosstide (GRPRTSSAEG) as substrate except the protein kinase A inhibitor peptide was not added to the reactions. For peptide stimulation experiments the various peptides were dissolved in water and added to the kinase assay mix prior to adding the PKB protein. Peptides were synthesized by Franz Fischer at the FMI or purchased from Neosystem, Strasburg, France.
(§2) All experiments were performed in either duplicate or triplicate.

[7] = target: T2, His tagged pΔPH-PKB-ΔC wild type (Homo sapiens, UniProt P31751); test: PIFtide responsiveness of His tagged wild type pΔPH-PKB-ΔC expressed in HEK cells; type: biochemical; conditions: incomplete Thr 309 phosphorylation
T2 construct: pΔPH-PKB-ΔC (residues 146 to 460, phosphorylated in vitro on Thr-309); made in house; host or cells: HEK cells (transient expression), purified on Ni-NTA agarose
T2 sequence (P31751 146-460, stated change not applied): as above
Method: To test the notion that a hydrophobic groove is induced in PKB to engage the hydrophobic motif, and activate the kinase, a series of His tagged pΔPH-PKB-ΔC hydrophobic groove mutants were prepared and their responsiveness to PIFtide assessed. PKB mutants were transiently expressed in HEK cells, phosphorylated in vitro with PDK1, and purified using Ni-NTA agarose. […] Wild type PKB prepared using this procedure was stimulated ˜5-fold by 130 μM PIFtide (FIG. 6B).
as §1

[8] = target: T3, ΔPH-PKB phosphorylated on both Thr 309 and Ser 474 (Homo sapiens, UniProt P31751); test: Protein kinase B assay with Crosstide, peptide stimulation of doubly phosphorylated ΔPH-PKB; type: biochemical
T3 construct: Purification of ΔPH-PKBβ-ΔC (Residues 146-460) and ΔPH-PKBβ (Residues 146-481); 6xHis (N, cleaved yes); made in house; host or cells: Sf9 insect cells / baculovirus (pFastBacHTa)
T3 sequence (P31751 146-481, stated change not applied): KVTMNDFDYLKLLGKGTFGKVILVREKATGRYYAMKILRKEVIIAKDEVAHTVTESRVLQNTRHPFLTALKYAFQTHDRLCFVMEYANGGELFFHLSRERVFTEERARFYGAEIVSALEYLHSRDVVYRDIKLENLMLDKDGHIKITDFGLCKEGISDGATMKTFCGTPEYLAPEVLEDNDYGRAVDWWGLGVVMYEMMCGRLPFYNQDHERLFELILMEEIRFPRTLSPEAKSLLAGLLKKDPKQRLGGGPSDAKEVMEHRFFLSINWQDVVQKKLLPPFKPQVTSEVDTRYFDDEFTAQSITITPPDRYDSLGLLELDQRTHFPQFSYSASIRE
Method: as §1, §2

pΔPH-PKB-ΔC = target: T4, pΔPH-PKB-ΔC (Homo sapiens, UniProt P31751); test: Isothermal titration calorimetry, peptide binding to pΔPH-PKB-ΔC
T4 construct: pΔPH-PKB-ΔC (residues 146 to 460, phosphorylated in vitro on Thr-309); 6xHis (N, cleaved yes); made in house; host or cells: Sf9 insect cells / baculovirus (pFastBacHTa)
T4 sequence (P31751 146-460, stated change not applied): as the sequence (P31751 146-460, stated change not applied) above
Method: (C) Isothermal titration calorimetry measurements of the binding of PIFtide to pΔPH-PKB-ΔC (left) and ΔPH-PKB-ΔC (right). Upper panel, raw data of the titration of PIFtide into pΔPH-PKB-ΔC. Lower panel, integrated heats of injections, corrected for the heat of dilution, with the solid line corresponding to the best fit of the data using the MicroCal software.
Using isothermal titration calorimetry, the affinity between PIFtide and both pΔPH-PKB-ΔC and ΔPH-PKB-ΔC was determined (FIG. 5C). […] The observed large decrease in entropy is […] typical of protein-peptide interactions, for example SH2-domain-phosphotyrosine peptide complexes (Ladbury et al., 1996), and is consistent with an ordering of both the protein, presumably the αB- and αC-helices of the N-lobe, and peptide on complex formation.

[9] = target: pΔPH-PKBβ-ΔC (human PKBβ residues 146 to 460, phosphorylated in vitro on Thr-309) (human) (UniProt P31751); test: cell-based or functional assay; remark: listed apart in the source
[10] = assuming activation at saturating peptide similar to that induced by PIFtide, read-out: EC50 estimated from FIG. 5A

Which results are given for “PIFtide (synthetic peptide encompassing the PRK2 hydrophobic motif)”?
TΔS [1]: -9.2 kcal/mol; ΔH [1]: -16 kcal/mol; activation of PKB kinase activity [2]: 5 fold; PIFtide activation relative to wild type (% of wild type) [3]: 25; EC50 of activation of kinase activity [4]: 0.003 mM; activation of PKB kinase activity [4]: 15 fold; peptide concentration giving maximum and saturable activation [4]: 20 µM; specific activity of pΔPH-PKB-ΔC maximally activated by PIFtide [4]: 350 nmol/min/mg; stimulation of PKB kinase activity by 130 µM PIFtide [5]: 5 fold

Which estimated EC50 of activation of kinase activity [4] does the source give for “PKB HM-P (peptide modelled on the phosphorylated hydrophobic motif of PKBβ, residues 460-481)” here?
The estimated EC50 of activation of kinase activity was 2.3 mM.

And the fold lower affinity than PIFtide, from the estimated EC50 of activation [4]?
The fold lower affinity than PIFtide, from the estimated EC50 of activation was 1000 fold.

And the stimulation of PKB kinase activity towards Crosstide [4]?
Its stimulation of PKB kinase activity towards Crosstide is 4 fold.

What does the source list for CC[C@H](C)[C@H](NC(=O)[C@H](CO)NC(=O)[C@H](C)NC(=O)[C@H](CO)NC(=O)[C@H](Cc1ccc(O)cc1)NC(=O)[C@H](CC(=O)O)NC(=O)[C@H](Cc1ccccc1)NC(=O)[C@H](CCC(N)=O)NC(=O)[C@@H]1CCCN1C(=O)[C@H](Cc1ccccc1)NC(=O)[C@H](Cc1c[nH]cn1)NC(=O)[C@@H](NC(=O)[C@H](CCCNC(=N)N)NC(=O)[C@H](CCC(N)=O)NC(=O)[C@H](CC(=O)O)NC(=O)[C@H](CC(C)C)NC(=O)[C@H](CCC(=O)O)NC(=O)[C@H](CC(C)C)NC(=O)[C@H](CC(C)C)NC(=O)CN)[C@@H](C)O)C(=O)N[C@@H](CCCNC(=N)N)C(=O)N[C@@H](CCC(=O)O)C(=O)O [PKB HM-D] (H-GLLELDQRTHFPQFDYSASIRE-OH; N-terminus and C-terminus assumed)?
fold lower affinity than PIFtide, from estimated EC50 [6]: ~1000 fold; EC50 [6, 10]: 3.6 mM

Which “activation of wild type PKB by PKB HM-peptide (in words)” value [7] does the source give for CC[C@H](C)[C@H](NC(=O)[C@H](CO)NC(=O)[C@H](C)NC(=O)[C@H](CO)NC(=O)[C@H](Cc1ccc(O)cc1)NC(=O)[C@H](COP(=O)(O)O)NC(=O)[C@H](Cc1ccccc1)NC(=O)[C@H](CCC(N)=O)NC(=O)[C@@H]1CCCN1C(=O)[C@H](Cc1ccccc1)NC(=O)[C@H](Cc1c[nH]cn1)NC(=O)[C@@H](NC(=O)[C@H](CCCNC(=N)N)NC(=O)[C@H](CCC(N)=O)NC(=O)[C@H](CC(=O)O)NC(=O)[C@H](CC(C)C)NC(=O)[C@H](CCC(=O)O)NC(=O)[C@H](CC(C)C)NC(=O)[C@H](CC(C)C)NC(=O)CN)[C@@H](C)O)C(=O)N[C@@H](CCCNC(=N)N)C(=O)N[C@@H](CCC(=O)O)C(=O)O [HM-P, GLLELDQRTHFPQFpSYSASIRB] (H-GLLELDQRTHFPQF[pS]YSASIRE-OH; N-terminus and C-terminus assumed) here?
The value was “did not elicit measurable activation”.

And the “activation of ΔPH-PKB phosphorylated on both Thr 309 and Ser 474 (in words)” value [8]?
The value was “did not further activate”.

What about the “fold lower affinity than PIFtide, from estimated EC50” value [6] of the same molecule?
Its value is roughly 1000 fold.

What about the EC50 [6, 10] of the same molecule?
The EC50 was 2.3 mM.

How did the “fold lower affinity relative to PIFtide, ITC” value (pΔPH-PKB-ΔC) turn out when CC[C@H](C)[C@H](NC(=O)[C@H](Cc1ccc(O)cc1)NC(=O)[C@H](C)NC(=O)[C@H](Cc1ccccc1)NC(=O)[C@H](CC(=O)O)NC(=O)[C@H](CCCNC(=N)N)NC(=O)[C@H](Cc1ccccc1)NC(=O)[C@H](CCSC)NC(=O)[C@H](CCC(=O)O)NC(=O)[C@H](CCC(N)=O)NC(=O)[C@H](CCC(=O)O)NC(=O)[C@H](CCC(=O)O)NC(=O)[C@H](CCC(=O)O)NC(=O)[C@H](CO)NC(=O)[C@H](CC(C)C)NC(=O)[C@@H](NC(=O)[C@H](CCCNC(=N)N)NC(=O)[C@@H]1CCCN1C(=O)[C@H](CCC(=O)O)NC(=O)[C@@H](N)CCCNC(=N)N)[C@@H](C)CC)C(=O)N[C@@H](C)C(=O)N[C@@H](CC(=O)O)C(=O)N[C@@H](Cc1c[nH]c2ccccc12)C(=O)O [PIFtide(D->A)] (H-REPRILSEEEQEMFRDFAYIADW-OH; N-terminus and C-terminus assumed) was run?
The value was “approximately 25 fold”.

What about the “fold lower affinity than PIFtide, from EC50” value [6] of the same molecule?
Its value is 10 fold.

And the EC50 ([6]; Crosstide substrate, value of PIFtide(D->A) called estimated, read-out: EC50 for activation of pΔPH-PKB-ΔC)?
Its EC50 is 0.03 mM.

What about the “maximal activation of pΔPH-PKB-ΔC compared with wild type PIFtide (in words)” value ([6]; saturating / high concentrations of the mutant peptide) of the same molecule?
Its value is “identical to that of the wild type peptide; also recorded: could activate PKB maximally”.

“MFRDFDYIADW [PIFtide1, 11-residue peptide encompassing the six-residue hydrophobic motif of PIFtide]” was tested. Which “stimulation of pΔPH-PKB-ΔC activity (in words)” value ([6]; Crosstide substrate) did it give?
The value was “essentially recapitulates the activation”.

How did the “stimulation of pΔPH-PKB-ΔC activity (in words)” value ([6]; Crosstide substrate) turn out when GLLELDQRTHFPQFSYSASIRE [PKB HM-S] was run?
Its value is “did not stimulate”.

B1: PKB HM-D (PKB hydrophobic motif peptide with aspartate at position 474) (peptide)
peptide: GLLELDQRTHFPQFDYSASIRE
How did the estimated EC50 of activation of kinase activity [9] turn out when B1 was run?
The estimated EC50 of activation of kinase activity was 3.6 mM.

What about the fold lower affinity than PIFtide, from the estimated EC50 of activation [9] of the same molecule?
Its fold lower affinity than PIFtide, from the estimated EC50 of activation is 1000 fold.

And the stimulation of PKB kinase activity towards Crosstide [9]?
The stimulation of PKB kinase activity towards Crosstide was 3 fold.
